Results from patent US20120237442A1.

Target: CH1-AD1-Fab-h679
Test: equilibrium gel filtration analysis of the binary complex (DDD1 dimer docking to AD1); complex also seen by SE-HPLC

Chain of CH1-AD1-Fab-h679 (heavy, as listed by the source): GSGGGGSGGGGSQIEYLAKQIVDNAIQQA

Kd: 8 nM
Substance: CH1-DDD1-Fab-hMN-14
